What was measured:
Assay in all cases: SPR
[1] = target: IgA1-Fc Fc (Homo sapiens) (UniProt P01876); settings: cited from earlier work
[2] = target: polymeric IgA1Mce myeloma protein (human)
[3] = target: monomeric IgA1Mce myeloma protein (human)
[4] = target: polymeric IgA1λ myeloma protein (human)
[5] = target: polymeric IgA1κ myeloma protein (human)
[6] = target: polymeric IgA1Ale myeloma protein (human)
[7] = target: monomeric IgA1λ myeloma protein (human)
[8] = target: monomeric IgA1κ myeloma protein (human)
[9] = target: Hinge region glycopeptide (HR-GalNAc) (human)

FcαRI, sequence (P24071 22-287): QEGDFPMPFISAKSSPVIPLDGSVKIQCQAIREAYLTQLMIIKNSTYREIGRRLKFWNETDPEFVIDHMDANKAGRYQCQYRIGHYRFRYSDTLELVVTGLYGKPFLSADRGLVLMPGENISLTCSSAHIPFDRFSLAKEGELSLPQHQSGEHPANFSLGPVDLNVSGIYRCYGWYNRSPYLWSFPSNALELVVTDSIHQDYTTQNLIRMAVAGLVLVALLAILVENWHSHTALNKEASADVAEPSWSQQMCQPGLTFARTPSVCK
IgA1-Fc Fc (Homo sapiens), sequence (P01876 120-340): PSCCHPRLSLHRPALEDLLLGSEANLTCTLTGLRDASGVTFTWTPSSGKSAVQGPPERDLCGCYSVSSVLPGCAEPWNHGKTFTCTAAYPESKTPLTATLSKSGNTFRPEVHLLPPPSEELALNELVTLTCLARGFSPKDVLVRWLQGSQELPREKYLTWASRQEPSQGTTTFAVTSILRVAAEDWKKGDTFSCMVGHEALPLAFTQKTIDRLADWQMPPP

Row | KD1 (two-site model, apparent) [2] [µM] | KD2 (two-site model, apparent) [2] [µM] | KD1 (two-site model, apparent) [3] [µM] | KD2 (two-site model, apparent) [3] [µM] | KD1 (two-site model, apparent) [4] [µM] | KD2 (two-site model, apparent) [4] [µM] | KD1 (two-site model, apparent) [5] [µM] | KD2 (two-site model, apparent) [5] [µM] | KD1 (two-site model, apparent) [6] [µM] | KD2 (two-site model, apparent) [6] [µM] | KD1 (two-site model, apparent) [7] [µM] | KD2 (two-site model, apparent) [7] [µM] | KD1 (two-site model, apparent) [8] [µM] | KD2 (two-site model, apparent) [8] [µM] | KD1 (two-site model, apparent) [9] [µM] | KD2 (two-site model, apparent) [9] [µM] | Substance | Kd [1] [nM]
1 |  |  |  |  |  |  |  |  |  |  |  |  |  |  |  |  | FcαRI (from UniProt P24071) | 9
2 | 5.6 | 70 | 7.2 | 76 | 3 | 28 | 1.7 | 25 | 1 | 14 | 6.2 | 73 | 1.8 | 8 | 0.11 | 7 | Helix aspersa agglutinin (natural protein) | 
3 | 1.1 | 7 | 2.3 | 24 | 1.1 | 5 | 0.65 | 11 | 0.58 | 6 | 1.8 | 21 | 0.76 | 10 | 0.045 | 2.3 | Helix pomatia agglutinin (natural protein) | 

Reference: PMC3721678
